Measurements published in US20030012792.

Target: alpha-1 antichymotrypsin (ACT, Sigma Chemical Co.) (UniProt P01011)
Sequence (P01011 24-423): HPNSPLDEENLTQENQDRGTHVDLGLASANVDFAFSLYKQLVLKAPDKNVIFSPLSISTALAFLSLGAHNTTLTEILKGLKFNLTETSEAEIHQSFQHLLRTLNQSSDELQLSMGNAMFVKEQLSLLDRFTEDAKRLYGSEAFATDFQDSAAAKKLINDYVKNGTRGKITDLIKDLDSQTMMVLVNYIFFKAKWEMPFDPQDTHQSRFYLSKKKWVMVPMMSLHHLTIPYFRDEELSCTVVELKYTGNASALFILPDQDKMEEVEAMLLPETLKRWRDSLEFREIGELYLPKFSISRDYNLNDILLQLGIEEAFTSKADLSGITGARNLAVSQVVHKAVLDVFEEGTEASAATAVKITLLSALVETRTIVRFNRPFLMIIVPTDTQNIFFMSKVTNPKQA

For “Human Prostate-Specific Antigen (purified human PSA, Vitro Diagnostics)”, the “proteolytic (serine protease) activity of PSA on synthetic substrate S-2586, absorbance at 405 nm” value was “preincubation of PSA with ACT blocked both serine protease activity of purified PSA (FIG. 11)”.
